Assay: soluble on expression in E. coli; label from the status in PepcDB or PDB records

Sequence | soluble on expression in E. coli
MKTVSQLIDMKQKQTKISMVTAYDFPSAKQVEAAGIDMILVGDSLGMTVLGYESTVQVTLADMIHHGRAVRRGAPNTFVVVDMPIGAVGISMTQDLNHALKLYQETNANAIKAEGAHITPFIEKATAIGIPVVAHLGLTPQSVGVMGYKLQGATKEAAEQLILDAKNVEQAGAVALVLEAIPNDLAEEISKHLTIPVIGIGAGKGTDGQVLVYHDMLNYGVEHKAKFVKQFADFSVGVDGLKQYDQEVKSGAFPSEEYTYKKKIMNEVNNNDLEHHHHHH | soluble
MKVDGIQAEMRAMMVEATNTTPTGTGAKVGADFNDLLTKAINNVNSLQKSSGDLQTRFDRGDADVSLSDVMIARNKSSVAFEATVQIRNKLVEAYKDLMNMPV | not soluble
MKVEGRCHCGAIAYEAEVEPGTITVCHCADCQMQSGSVFRANISAPADTFVLLQGTPKEYLKIAASGARRMHAFCGNCGGPIYSCAAENPQSYSLRVGALEQRHALGRPLRQIWARRRFSWLSSLGDVEEFDGQP | not soluble
MKVFLYDTNLILASRVRSLLSSQGFEISDKEEACAGVVNLESPKGLEVVKELKEKGKKVVGYCGHKNVPLIQKAKELGVDEVIPNSQVVTSLGEILKKLCS | not soluble
MKVGVVGTGFVGSTAAFALVLRGSCSELVLVDRDEDRAQAEAEDIAHAAPVSHGTRVWHGGHSELADAQVVILTAGANQKPGESRLDLLEKNADIFRELVPQITRAAPDAVLLVTSNPVDLLTDLATQLAPGQPVIGSGTVLDSARFRHLMAQHAGVDGTHAHGYVLGEHGDSEVLAWSSAMVAGMPVADFMQAQNLPWNEQVRAKIDEGTRNAAASIIEGKRATYYGIGAALARITEAVLRDRRAVLTVSAPTPEYGVSLSLPRVVGRQGVLSTLHPKLTGDEQQKLEQSAGVLRGFKQQLGL | soluble
MKVISLKKDSFNKGGAVITLLPEDKEDLFTVYQIVDKDDELIFKKKFTSKLDEAGKKKSTDLVKLKIKVISEDFDMKDEYLKYKGVTVTDESGASNVDIPVGKYLSFTLDYVYPFTIIKQNFNKFMQKLLNEACNIEYKSDTAAVVLQEGIAHVCLVTSSSTILKQKIEYSMPKKKRTTDVLKFDEKTEKFYKAIYSAMKKDLNFDKLKTIILCSPGFYAKILMDKIFQYAEEEHNKKILDNKGMFFIAHCSTGYLQGINEVLKNPLYASKLQDTKYSKEIMVMDEFLLHLNKDDDKAWYGEKEVVKAAEYGAISYLLLTDKVLHSDNIAQREEYLKLMDSVESNGGKALVLSTLHSLGEELDQLTGIACILKYPLPDLDEDDGEE | soluble
MKVLAIDTSNYVMGVSLIEEGNVIGEIITNLTKNHSVRLMPAVEQLLKECGVKPKELTKIVVAAGPGSYTGVRIGVTAAKTLAWSLQIPIVGVSSLEVVAANGANFNGLISPLFDGRRGQIYTGLYTYEGEDLTSIEEDRIILIVDWLQMLKDKGKPVLFIGNDVKLHKETIIEHLGDQAVFAPVTKNNPRPSELAFLGLQKEEQDVHSFVPSYLRLAEAETKWLESQNK | not soluble
MKVMNIIHDSVVDGEGLRTVVFFAGCPHRCFGCHNPKSWNICNGTEMTVEEIVKEIASNPLTDVTFSGGDPFFQAAEVKKVAKAVKDLKKNLWMYTGYTLEEIQSSQNNDMIELLHYGDVLVDGRFEIGKKDLTLPFRGSSNQRIIRLKELEHHHHHH | soluble
MKVRHPFKVVVVTGVPGVGKTTVIKELQGLAEKEGVKLHIVNFGSFMLDTAVKLGLVEDRDKIRTLPLRRQLELQREAAKRIVAEASKALGGDGVLIIDTHALVKTVAGYWPGLPKHVLDELKPDMIAVVEASPEEVAARQARDTTRYRVDIGGVEGVKRLMENARAASIASAIQYASTVAIVENREGEAAKAAEELLRLIKNL | soluble
MKVSILDYGVIDKEKTPQEALLETRCLAQVADKLGFHRFWVAEHHNIYAFAISSPELLMMHLADHTKQIRIGSGGIMPLHYSSFKIAEWIMTLEALHPNRIDLGIGNSLGTTLVQRALSSIHCKDSYSQVVTELYQYLNPDHLSPLPIFVNPRGNTYPQIWTLSNSLETAELAGQLGLGYTFGIFPYIPKDPITEAKRVSAHYRKAFRPSKLLKIPKLILAVFIVLSDTDEKAEALAKPLDIWMLGQQDFNEFKTYPDVEEARNYHLTEKQREAIAANRSRMVIGSPHTVKKQLDRLIEACQADELLAIPLVPEFANRQRTLELLADLYVTI | not soluble
MKVTITANAPLSAGAMAVKKEAENANVFAALLAHKQQELLPAGAETSLFQEESSKNKEPDWQNGGMETGAAGQPSSAEKKPAQIESLWLAPSIMTALAVAPISAAAGAPLLEADQQAEGKTSDHWTFPFVGAMNGEETIAAQPAADEAGFERAFITDGRKSGHIDAESGSPSSGKTGMFPPLLSDGDQRPFHEQGGNRTVVALPNEASPVRPAGEKDVSLPKRGDKGHGGEATPSFTTPPALLSPSSSSVGLVGEMPASAGGSVADQVAHALRSARWMKLPNGVMQLVIRLHPEHLGTVTVKMTEEGGKLAAKLLVANDAVKELLYAHLPQLAQQLDASSITVEKWTVWSDYDSPAMPPYSGNRQGGQQQGESRQKQKREPSSSFPFALDGIEADA | not soluble
MKVTVHAKNIELTNALKDCVEKKISKLSKYFEPGVEAKATLSVEKNKQIVEIMIPFNGILLRGEESTDDMYKSIDLVEEKIERQIRKQKTRLSKKNRYDSLRFAHIDPIEDMKEEKEAKIVKTKRFDVKPMGAEEAVLQMELIGHDFFVFQDPETNQLNVVYKRKDGNYGLIEPGLGEELEHHHHHH | soluble
MKVWITGAGGMMGSHLAEMLLAAGHDVYATYCRPTIDPSDLQFNGAEVDITDWCSVYDSIATFRPDAVFHLAAQSYPAVSWARPVETLTTNMVGTAIVFEALRRVRPHAKIIVAGSSAEYGFVDPSEVPINERRELRPLHPYGVSKAATDMLAYQYHKSYGMHTVVARIFNCTGPRKVGDALSDFVRRCTWLEHHPEQSAIRVGNLKTKRTIVDVRDLNRALMLMLDKGEAGADYNVGGSIAYEMGDVLKQVIAACKRDDIVPEVDPALLRPTDEKIIYGDCSKLAAITGWQQEICLTQTIADMFDYWRSKSESALMV | not soluble
MKWDEIGKNIAKEIEKEILPYFGRKDKSYVVGTSPSGDETEIFDKISEDIALKYLKSLNVNIVSEELGVIDNSSEWTVVIDPIDGSFNFINGIPFFAFCFGVFKNNEPYYGLTYEFLTKSFYEAYKGKGAYLNGRKIKVKDFNPNNIVISYYPSKKIDLEKLRNKVKRVRIFGAFGLEMCYVAKGTLDAVFDVRPKVRAVDIASSYIICKEAGALITDENGDELKFDLNATDRLNIIVANSKEMLDIILDLL | soluble
MKWHGLPACDSNPNSTTEFCRTRRPTKTMNSPATQTATPTNVDIASIVEQVLRRLRDQTNTNGSTSKPATHAPSAHVLSDKVISVDVIRGIPSGVTQVQLSGGIVTPAARDEMRARGISLAGAESTSAAAIKPASNSGKRFIQLHTDTSSKSIRDALARQLALRGVDHCPRAHRSVIVTKHPATALLGRIQSGARAVLITRLEDIPRFASEIDADTFVLDMQRFNLVALVNAATSIAQLSTSSTSQEAT | not soluble
MKYAVLIGDGMADYPIEELGSRTILQAARTPAMDSIAARGKTGLAKTVPEGFPPGSDVANMSIFGYDPAIYYSGRAPLEAASMGVALAADDVAFRCNLITIENGKIKDYSAGHISSDEAEILIDTLDSELRTEKVRFYPGISYRHLIVAGNDLGAETECTPPHDITGERKDDYLPRGKDGEFFSGLIEASTVVLELHPVNLKRVQEGKNPANSIWVWGQGYAPKFKTFQELYGKSGAIISAVDLLKGIGIYAGLDVIEVPGATGYLDTNYEGKASAAIEALKTRDLVFVHVEAPDEAGHEGSLEKKMKAIEDFDSRIVSPILKHAEASDETFTILVLPDHPTPISVKTHTRDPIPFAIYRTDAADPDGVEYFDEESVKNGSMGLVKASDLIGMLVKVLEHHHHHH | not soluble
MKYCDFNGCHNKISKGRYCEEHKRNKPRKKKDKKNIYHHENKPFYRTDAWKFVRSKVYERENGCCQRCGRFVFGRRAHVHHVIPIKEDPILKLEENNLRLLCPVCHTIEENEDKPKKVFPSYFGSPPIKNLEHHHHHH | soluble
MKYGPSKDQIKQMAEEVREAAIRVKGEKELRMCPKTGHGSEWAGQLAVDANGAMNTYQPEGKYGDYGIGEDNRYLGTAKDWATLESGYQWIPGEFERYLMPEPHDFDALVDSAQKLTKDFVNVGQAKDPANVPAGTPTSVAPGTSAVDQPIRLSMGFTSDWSGHFADGFQRYLSEIPDVTRRQAVVAETLYEAAVAARDIYGAGREELGNIAKNAKLAIEGVEAGKSTGGCAGSSMATGFALIAAAATVAAGVSTLPISGPAVISGAMAAGNWTIVVGISSAIAAGSPLIPAPEKIELLASDVDGVIEKMKEALTKREKTVTDSEEAFAKKLGANSEMVEKNKVTGKDGGKSQDNAFFPRRPAMLDMSTDLKDLKDPATGFTHPVAAS | not soluble
MKYKSVFDIIGPVMVGPSSSHTAGAVRIGLVARKLFGRKPTWARISFYGSFAETYRGHGTDVAIVAGLLGFDTFDERLPNALEIAQAEGVDVSFSAEEAIPHHPNTARLRIGDDEGELELVGISIGGGKIEIVELNGFALKLSGHHPALLIMHNDRYGTIGAVASVLAKRKINIGHMEVSRKEKGKEALMAIEVDQPLTDDLIQELEQLPNIIQVAKLAD | not soluble
MKYRVETNPFSKDRYNPEQLEMFKNRQLSKDKAEVFFTRLYNQHIAWVIIANVMTEYVIKFRKSATSFEEAWDALDYQRTTEIVFRAVNGLPCSEKDSGELETYLSEEQHEKH | not soluble
MKYWLYTSLFLALIFSFRSYANSDIWILIDTLEQRLSVMRGDKAQLAFNNIAIGRYGASSSRMKGDNQTPLGSFQISWIKQHHRYYRFFGVDFPNQEAADLALAEKRISRQAWLSITKAIESSRLPPQDTPLGGYIGIHGIGRGDRTVHARFNWTNGCVALTNAQIDELSSWIKIGTKVVIR | not soluble
MLCIDSSRDLTYGVVMTFKVMEFQKGRLQNLYWKRDVCASCKGNQNFVCLKKQVCAIRTPSCKGRGGSVGCSLGIQLAFSGTDKHLAVLNSWYEVDNLKQYSLYGLYSNLKSSLTNQLNNFF | soluble
MLEACTKCGTCAEACTMYLGSGRKKIYSPVYRSDMLRKIYKKHFTLTGKLFGPLIGAKDPTEDDINALAESAYRCTVCRRCALACPFGLDNGLITRETRKIFADLGILEHHHHHH | not soluble
MLEFFDEDFDNMALVEGALELNKSVNPETNVHWAKQELERLYQEAEATLIHETDEEQRFDSFLRLFFHEWGFKGDDQEYFISDNSFIDKVLERKKGIPVSLGAILLYLGNRLGFPMKGVTFPTQFLIKVDWMHKTPDYINPFNGEYVGEKILQAWLIGQEGPLAQLKPEHFDEADNPTVIGRWLALIKSAMLREERYTLALRCTNLALTFVPDDPYEIRDRGFIFQQLECHQVAVSDFQYFIDQCPDDPASELLKSQVNAMSEKHVTLHLEHHHHHH | soluble
MLEGAKFNVLAVGNHHNNDNNYYAFTQEFYQKLNEGSNMSMESMQTSNAGGSVSMSVDNSSVGSSDALIGHPGLKPVRHYSLSVGQSVFRPGRVTHALNDDALAQALMDTRYPTEGLTNYDEWTIDLRKLNMGPAFAQGAFGKLYKGTYNGEDVAIKILERPENSPEKAQFMEQQFQQEVSMLANLKHPNIVRFIGACRKPMVWCIVTEYAKGGSVRQFLTRRQNRAVPLKLAVKQALDVARGMAYVHGRNFIHRDLKSDNLLISADKSIKIADFGVARIEVQTEGMTPETGTYRWMAPEMIQHRAYNQKVDVYSFGIVLWELITGLLPFQNMTAVQAAFAVVNRGVRPTVPNDCLPVLSDIMTRCWDANPEVRPCFVEVVKLLEAAETEIMTTARKARFRCCLSQPMTID | not soluble
